In PMC9482650, “Quantitative fragmentomics allow affinity mapping of interactomes” (Nature Communications, 2022) one finds pKd data, which are given here for five molecules.

Targets include GRIP2_4, Q9C0E4; LAP2, Q96RT1; DLG5_1, Q8TDM6; FRMPD2_2, Q68DX3; NHERF2_2, Q15599; FRMPD3, Q5JV73; LNX1_3, Q8TBB1; MAGI2_5, Q86UL8; MAGI2_3, Q86UL8.
Common to all, as to experiment: holdup assay
Holding throughout (design): key: below the threshold = too weak to quantify, mostly under pKd 3.1 to 4

In a further assay the target is T1, ARHGAP21, Q5T5U3.
T1 sequence (Q5T5U3 45-169, limits assumed, looked up): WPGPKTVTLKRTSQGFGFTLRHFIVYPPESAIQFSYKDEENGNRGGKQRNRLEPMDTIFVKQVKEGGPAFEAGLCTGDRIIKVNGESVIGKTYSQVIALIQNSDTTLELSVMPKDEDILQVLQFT

The next assay concerns the target T2, PDZRN3_1, Q9UPQ7.
T2 sequence (Q9UPQ7 244-349, limits assumed, looked up): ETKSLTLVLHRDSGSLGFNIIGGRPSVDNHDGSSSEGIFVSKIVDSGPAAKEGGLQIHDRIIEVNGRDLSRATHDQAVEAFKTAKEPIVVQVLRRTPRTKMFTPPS

Another assay has as its target TJP1_3, Q07157. The note with it: plain residues with an end cap or a label only (N-terminal biotin on a linker: ttds).
The next assay concerns the target Inadl_4, Q8NI35. The settings on record: plain residues with an end cap or a label only (N-terminal biotin on a linker: ttds).
The target in another assay is T3, DFNB31_3, Q9P202.
T3 sequence (Q9P202 811-907, limits assumed, looked up): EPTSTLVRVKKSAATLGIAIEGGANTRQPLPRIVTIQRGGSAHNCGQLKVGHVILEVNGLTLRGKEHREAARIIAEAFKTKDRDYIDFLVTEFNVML
The settings on record: plain residues with an end cap or a label only (N-terminal biotin on a linker: ttds).

The next assay deals with T4, RAPGEF6, Q8TEU7.
T4 sequence (Q8TEU7 525-625, limits assumed, looked up): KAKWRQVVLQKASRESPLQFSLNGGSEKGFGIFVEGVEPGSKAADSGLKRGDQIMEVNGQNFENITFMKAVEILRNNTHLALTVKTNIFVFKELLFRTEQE

In a further assay the target is T5, GRIP1_4, Q9Y3R0.
T5 sequence (Q9Y3R0 467-571, limits assumed, looked up): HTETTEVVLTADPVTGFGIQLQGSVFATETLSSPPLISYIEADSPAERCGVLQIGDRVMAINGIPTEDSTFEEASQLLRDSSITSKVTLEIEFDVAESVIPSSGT

Another assay has as its target T6, LNX2_2, Q8N448.
T6 sequence (Q8N448 334-432, limits assumed, looked up): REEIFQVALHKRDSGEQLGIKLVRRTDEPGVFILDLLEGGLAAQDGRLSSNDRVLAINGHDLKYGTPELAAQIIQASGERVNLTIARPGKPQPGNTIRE

Another assay concerns the target T7, SNTB1, Q13884.
T7 sequence (Q13884 107-205, limits assumed, looked up): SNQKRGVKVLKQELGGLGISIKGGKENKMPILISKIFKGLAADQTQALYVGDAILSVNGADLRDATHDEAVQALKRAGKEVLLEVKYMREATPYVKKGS

A further assay addresses DLG2_3, Q15700. The note with it: plain residues with an end cap or a label only (N-terminal biotin on a linker: ttds).
For the next assay, the target named is MAGI1_1, Q96QZ7. The settings on record: plain residues with an end cap or a label only (N-terminal biotin on a linker: ttds).
Another assay addresses T8, DLG3_3, Q92796.
T8 sequence (Q92796 374-475, limits assumed, looked up): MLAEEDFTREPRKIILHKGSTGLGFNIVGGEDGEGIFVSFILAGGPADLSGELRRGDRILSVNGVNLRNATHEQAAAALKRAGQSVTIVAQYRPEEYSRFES
The note with it: plain residues with an end cap or a label only (N-terminal biotin on a linker: ttds).

The next assay concerns the target Inadl_10, Q8NI35. The settings on record: plain residues with an end cap or a label only (N-terminal biotin on a linker: ttds).
A further assay has as its target T9, APBA1_2, Q02410.
T9 sequence (Q02410 742-832, limits assumed, looked up): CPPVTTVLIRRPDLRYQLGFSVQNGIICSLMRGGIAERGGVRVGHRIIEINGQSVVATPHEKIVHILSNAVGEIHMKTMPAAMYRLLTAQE

The next assay addresses T10, APBA2_1, Q99767.
T10 sequence (Q99767 563-664, limits assumed, looked up): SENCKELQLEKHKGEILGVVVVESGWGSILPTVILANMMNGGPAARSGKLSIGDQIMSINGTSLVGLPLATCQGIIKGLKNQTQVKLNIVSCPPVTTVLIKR

The next assay has as its target Inadl_5, Q8NI35. The settings on record: plain residues with an end cap or a label only (N-terminal biotin on a linker: ttds).
The next assay addresses T11, HTRA3, P83110.
T11 sequence (P83110 354-453, limits assumed, looked up): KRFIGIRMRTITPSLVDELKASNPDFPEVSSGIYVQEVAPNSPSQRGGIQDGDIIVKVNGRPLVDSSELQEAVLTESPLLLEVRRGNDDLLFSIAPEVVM
The settings on record: plain residues with an end cap or a label only (N-terminal biotin on a linker: ttds).

The mark [1] stands for this setting: plain residues with an end cap or a label only (N-terminal biotin on a linker: ttds).
[2] abbreviates: plain residues with an end cap or a label only (N-terminal biotin on a linker: ado-ado).

Inadl_5, Q8NI35, sequence (Q8NI35 673-780): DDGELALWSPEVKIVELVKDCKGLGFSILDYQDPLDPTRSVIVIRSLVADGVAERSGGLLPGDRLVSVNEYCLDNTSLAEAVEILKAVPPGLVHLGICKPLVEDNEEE
TJP1_3, Q07157, sequence (Q07157 416-512): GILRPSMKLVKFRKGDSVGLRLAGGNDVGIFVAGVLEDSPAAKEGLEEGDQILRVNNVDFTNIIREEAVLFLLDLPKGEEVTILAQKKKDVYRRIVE
MAGI2_5, Q86UL8, sequence (Q86UL8 915-1017): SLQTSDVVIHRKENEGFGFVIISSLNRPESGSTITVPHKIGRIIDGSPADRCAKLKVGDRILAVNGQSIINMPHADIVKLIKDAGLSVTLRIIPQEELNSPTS
MAGI1_1, Q96QZ7, sequence (Q96QZ7 1-106): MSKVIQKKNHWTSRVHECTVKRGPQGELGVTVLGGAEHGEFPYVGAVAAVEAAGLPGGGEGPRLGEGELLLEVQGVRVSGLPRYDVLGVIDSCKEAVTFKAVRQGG
LAP2, Q96RT1, sequence (Q96RT1 other isoform, or with tags, fused parts or gaps): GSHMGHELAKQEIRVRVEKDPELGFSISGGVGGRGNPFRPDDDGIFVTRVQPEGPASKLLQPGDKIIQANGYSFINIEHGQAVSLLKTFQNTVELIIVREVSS
FRMPD2_2, Q68DX3, sequence (Q68DX3 944-1038): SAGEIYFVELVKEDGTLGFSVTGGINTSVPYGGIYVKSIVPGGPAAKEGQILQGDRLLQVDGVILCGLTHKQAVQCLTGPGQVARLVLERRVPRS
LNX1_3, Q8TBB1, sequence (Q8TBB1 500-596): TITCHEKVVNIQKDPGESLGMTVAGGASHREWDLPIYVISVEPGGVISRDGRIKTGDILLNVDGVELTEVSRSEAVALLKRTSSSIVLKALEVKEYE
Inadl_10, Q8NI35, sequence (Q8NI35 1673-1763): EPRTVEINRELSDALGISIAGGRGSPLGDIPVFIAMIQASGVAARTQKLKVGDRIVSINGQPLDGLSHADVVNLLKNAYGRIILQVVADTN
MAGI2_3, Q86UL8, sequence (Q86UL8 600-682): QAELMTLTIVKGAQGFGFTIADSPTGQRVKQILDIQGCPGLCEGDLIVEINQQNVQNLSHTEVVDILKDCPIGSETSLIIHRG
FRMPD3, Q5JV73, sequence (Q5JV73 12-100): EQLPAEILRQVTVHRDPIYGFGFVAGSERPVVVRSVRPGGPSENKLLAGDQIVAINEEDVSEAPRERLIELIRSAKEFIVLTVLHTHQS
NHERF2_2, Q15599, sequence (Q15599 142-238): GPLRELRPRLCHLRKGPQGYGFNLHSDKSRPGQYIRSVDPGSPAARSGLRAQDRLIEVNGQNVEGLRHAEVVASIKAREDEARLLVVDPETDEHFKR
GRIP2_4, Q9C0E4, sequence (Q9C0E4 446-548): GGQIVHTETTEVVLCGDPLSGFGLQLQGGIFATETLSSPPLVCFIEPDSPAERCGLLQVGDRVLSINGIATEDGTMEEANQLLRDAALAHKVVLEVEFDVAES
Inadl_4, Q8NI35, sequence (Q8NI35 547-651): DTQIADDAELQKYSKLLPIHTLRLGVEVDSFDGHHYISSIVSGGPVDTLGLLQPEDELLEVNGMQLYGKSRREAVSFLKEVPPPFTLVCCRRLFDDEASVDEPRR
DLG5_1, Q8TDM6, sequence (Q8TDM6 617-713): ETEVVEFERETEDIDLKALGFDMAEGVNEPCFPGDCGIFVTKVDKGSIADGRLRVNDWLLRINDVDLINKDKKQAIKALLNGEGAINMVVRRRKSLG

B1: GRASP, Q7Z6J2 (peptide)
chain: RSLEEEESQL
Regarding B1, the pKd is 3.83 with ARHGAP21, Q5T5U3 (setting [1]); 4.24 in the assay with PDZRN3_1, Q9UPQ7 (setting [1]); 3.75 with GRIP2_4, Q9C0E4 (setting [1]); “below the threshold” with TJP1_3, Q07157; 3.83 with Inadl_4, Q8NI35; 3.69 with LAP2, Q96RT1 (setting [1]). Moreover, the pKd result was “below the threshold” with DLG5_1, Q8TDM6 (setting [1]); 3.74 with DFNB31_3, Q9P202; “below the threshold” in the assay with FRMPD2_2, Q68DX3 (setting [1]); 3.56 in the assay with RAPGEF6, Q8TEU7 (setting [1]); 3.5 with GRIP1_4, Q9Y3R0 (setting [1]); “below the threshold” with LNX2_2, Q8N448 (setting [1]). In addition, the negative-log Kd (pKd) is 3.89 with SNTB1, Q13884 (setting [1]); “below the threshold” in the assay with DLG2_3, Q15700; “below the threshold” with MAGI1_1, Q96QZ7; 5.07 with NHERF2_2, Q15599 (setting [1]); 3.81 with DLG3_3, Q92796; 3.63 in the assay with FRMPD3, Q5JV73 (setting [1]). For the same molecule, the pKd result in the assay with LNX1_3, Q8TBB1 (setting [1]) is “below the threshold”; in the assay with Inadl_10, Q8NI35 it was “below the threshold”; in the assay with APBA1_2, Q02410 (setting [1]) it was 3.65; in the assay with MAGI2_5, Q86UL8 (setting [1]), 4.42; with MAGI2_3, Q86UL8 (setting [1]), 3.65; in the assay with APBA2_1, Q99767 (setting [1]) it was “below the threshold”. Further, the pKd result with Inadl_5, Q8NI35 is listed as “below the threshold”; with HTRA3, P83110 it was “below the threshold”.

B2: HPV67-E6, A4U7F2 (peptide)
chain: SRPQRTQTQV
In the case of B2, the pKd entry in the assay with ARHGAP21, Q5T5U3 (setting [1]) is “below the threshold”; in the assay with PDZRN3_1, Q9UPQ7 (setting [1]) it was 3.76; in the assay with GRIP2_4, Q9C0E4 (setting [1]) it was “below the threshold”; in the assay with TJP1_3, Q07157, “below the threshold”; with Inadl_4, Q8NI35 it was “below the threshold”; in the assay with LAP2, Q96RT1 (setting [1]) it was “below the threshold”. Also, the pKd result is “below the threshold” in the assay with DLG5_1, Q8TDM6 (setting [1]); “below the threshold” with DFNB31_3, Q9P202; 3.53 with FRMPD2_2, Q68DX3 (setting [1]); “below the threshold” with RAPGEF6, Q8TEU7 (setting [1]); “below the threshold” with GRIP1_4, Q9Y3R0 (setting [1]); 3.6 with LNX2_2, Q8N448 (setting [1]). Further, the pKd entry was “below the threshold” with SNTB1, Q13884 (setting [1]); 4.52 in the assay with DLG2_3, Q15700; “below the threshold” with MAGI1_1, Q96QZ7; “below the threshold” with NHERF2_2, Q15599 (setting [1]); 4.3 with DLG3_3, Q92796; “below the threshold” with FRMPD3, Q5JV73 (setting [1]). Besides, the pKd result with LNX1_3, Q8TBB1 (setting [1]) was “below the threshold”; with Inadl_10, Q8NI35, “below the threshold”; with APBA1_2, Q02410 (setting [1]), 3.54; with MAGI2_5, Q86UL8 (setting [1]), 3.94; with MAGI2_3, Q86UL8 (setting [1]), “below the threshold”; with APBA2_1, Q99767 (setting [1]), “below the threshold”. For the same molecule, the pKd entry was “below the threshold” in the assay with Inadl_5, Q8NI35 and “below the threshold” with HTRA3, P83110.

B3: NF2, P35240 (peptide)
chain: KSRVAFFEEL
With B3, the pKd was determined as 3.54 in the assay with PDZRN3_1, Q9UPQ7 (setting [2]); 3.73 in the assay with GRIP2_4, Q9C0E4 (setting [2]); 3.54 with SNTB1, Q13884 (setting [2]); 3.89 with NHERF2_2, Q15599 (setting [2]); 3.5 in the assay with FRMPD3, Q5JV73 (setting [2]); 3.61 with LNX1_3, Q8TBB1 (setting [2]). The pKd was 3.75 in the assay with APBA1_2, Q02410 (setting [2]); 3.55 with MAGI2_3, Q86UL8 (setting [2]); 3.54 with APBA2_1, Q99767 (setting [2]).

B4: MUC3B, MUC3A, Q02505;Q9H195 (peptide)
chain: KRPEMTSSSV
Take B4: the pKd with ARHGAP21, Q5T5U3 (setting [2]) was 1.86; with PDZRN3_1, Q9UPQ7 (setting [2]), “below the threshold”; with LAP2, Q96RT1 (setting [2]), 1.89; with DLG5_1, Q8TDM6 (setting [2]), “below the threshold”; with FRMPD2_2, Q68DX3 (setting [2]), “below the threshold”; in the assay with RAPGEF6, Q8TEU7 (setting [2]) it was “below the threshold”. For the same molecule, the pKd entry is “below the threshold” in the assay with GRIP1_4, Q9Y3R0 (setting [2]); “below the threshold” with LNX2_2, Q8N448 (setting [2]); 3.82 with MAGI2_5, Q86UL8 (setting [2]); “below the threshold” with MAGI2_3, Q86UL8 (setting [2]).

B5: CYSLTR2, Q9NS75 (peptide)
chain: SVWLRKETRV
Consider B5, for which the pKd entry with ARHGAP21, Q5T5U3 (setting [1]) was “below the threshold”; in the assay with PDZRN3_1, Q9UPQ7 (setting [1]), 5.1; with GRIP2_4, Q9C0E4 (setting [1]) it was “below the threshold”; in the assay with TJP1_3, Q07157, “below the threshold”; with Inadl_4, Q8NI35 it was “below the threshold”; with LAP2, Q96RT1 (setting [1]), 4.15. Besides, the pKd result in the assay with DLG5_1, Q8TDM6 (setting [1]) is “below the threshold”; with DFNB31_3, Q9P202 it was “below the threshold”; with FRMPD2_2, Q68DX3 (setting [1]), 3.6; with RAPGEF6, Q8TEU7 (setting [1]), 3.44; with GRIP1_4, Q9Y3R0 (setting [1]), “below the threshold”; with LNX2_2, Q8N448 (setting [1]) it was 3.77. Also, the pKd in the assay with SNTB1, Q13884 (setting [1]) was 5.5; in the assay with DLG2_3, Q15700, 5.4; with MAGI1_1, Q96QZ7, “below the threshold”; with NHERF2_2, Q15599 (setting [1]) it was 3.78; with DLG3_3, Q92796, 5.34; in the assay with FRMPD3, Q5JV73 (setting [1]) it was “below the threshold”. Moreover, the pKd with LNX1_3, Q8TBB1 (setting [1]) was 3.46; with Inadl_10, Q8NI35, “below the threshold”; in the assay with APBA1_2, Q02410 (setting [1]), 3.84; with MAGI2_5, Q86UL8 (setting [1]), 3.93; with MAGI2_3, Q86UL8 (setting [1]), 4.73; in the assay with APBA2_1, Q99767 (setting [1]) it was “below the threshold”. In addition, the pKd was 3.62 in the assay with Inadl_5, Q8NI35 and “below the threshold” with HTRA3, P83110.
